From US20080254027A1 (published 2008)

Molecular target: T1, CD5-His-GST (human, UniProt P06127 25-372)
T1 sequence: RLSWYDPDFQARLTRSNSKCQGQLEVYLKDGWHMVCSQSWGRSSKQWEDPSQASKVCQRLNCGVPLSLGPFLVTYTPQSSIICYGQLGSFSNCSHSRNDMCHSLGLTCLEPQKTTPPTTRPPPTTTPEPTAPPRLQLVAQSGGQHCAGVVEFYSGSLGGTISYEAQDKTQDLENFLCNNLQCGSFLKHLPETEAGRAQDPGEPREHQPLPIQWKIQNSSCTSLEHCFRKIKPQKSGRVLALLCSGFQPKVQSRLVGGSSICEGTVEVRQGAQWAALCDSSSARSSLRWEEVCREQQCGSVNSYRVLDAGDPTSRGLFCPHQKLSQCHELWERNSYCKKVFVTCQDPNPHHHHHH
Test: Biacore

B1: 5D7_H0L0_IgG1_WT (antibody, V domains shown)
VH: QVTLKESGPGILKPSQTLSLTCSFSGFSLSTSGMGVGWIRQPSGKGLEWLAHIWWDDDVYYNPSLKNQLTISKDASRDQVFLKITNLDTADTATYYCVRRRATGTGFDYWGQGTTLTVSS
VL: NIVMTQSHKFMSTSVGDRVSIACKASQDVGTAVAWYQQKPGQSPKLLIYWTSTRHTGVPDRFTGSGSGTDFTLTITNVQSEDLADYFCHQYNSYNTFGSGTRLELKR
Kd: ~1.5 nM
